Experimental data published in publication PMC4526739.

Tests used:
Assay in all cases: EMSA
Nab2;Tbp = target: T1, Nab2;Tbp (Saccharomyces cerevisiae;Saccharomyces …, UniProt P32505;P13393 1-525;1-240, |)
T1 sequence 1: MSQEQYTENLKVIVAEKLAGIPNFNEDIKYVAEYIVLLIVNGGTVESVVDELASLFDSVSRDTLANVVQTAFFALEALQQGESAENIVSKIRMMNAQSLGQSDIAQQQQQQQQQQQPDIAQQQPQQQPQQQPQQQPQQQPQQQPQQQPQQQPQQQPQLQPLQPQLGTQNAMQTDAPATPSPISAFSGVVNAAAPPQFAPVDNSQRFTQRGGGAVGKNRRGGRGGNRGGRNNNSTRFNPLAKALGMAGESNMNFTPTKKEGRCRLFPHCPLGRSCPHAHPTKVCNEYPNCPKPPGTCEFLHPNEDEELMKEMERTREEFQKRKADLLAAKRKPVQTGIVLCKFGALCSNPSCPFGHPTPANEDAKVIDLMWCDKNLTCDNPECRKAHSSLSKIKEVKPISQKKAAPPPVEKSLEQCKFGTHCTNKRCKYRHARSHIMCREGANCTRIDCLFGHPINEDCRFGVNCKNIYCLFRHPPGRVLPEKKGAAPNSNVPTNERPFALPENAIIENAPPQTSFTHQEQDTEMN
T1 sequence 2: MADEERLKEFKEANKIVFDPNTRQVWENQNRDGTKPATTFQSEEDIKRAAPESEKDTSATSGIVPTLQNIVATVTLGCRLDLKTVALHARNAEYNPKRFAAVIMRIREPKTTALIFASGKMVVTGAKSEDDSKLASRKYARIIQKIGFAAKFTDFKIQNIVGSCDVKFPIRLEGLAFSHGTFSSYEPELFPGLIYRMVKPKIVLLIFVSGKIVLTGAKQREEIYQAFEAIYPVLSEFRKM

Nab2;Tbp;Brf1;Bdp1 = Nab2;Tbp;Brf1;Bdp1 (Saccharomyces cerevisiae;Saccharomyces …, UniProt P32505;P13393;P29056;P46678 1-525;1-240;1-596;1-594, |||)
Nab2;Tbp;Brf1 = target: T2, Nab2;Tbp;Brf1 (Saccharomyces cerevisiae;Saccharomyces …, UniProt P32505;P13393;P29056 1-525;1-240;1-596, ||)
T2 sequence 1: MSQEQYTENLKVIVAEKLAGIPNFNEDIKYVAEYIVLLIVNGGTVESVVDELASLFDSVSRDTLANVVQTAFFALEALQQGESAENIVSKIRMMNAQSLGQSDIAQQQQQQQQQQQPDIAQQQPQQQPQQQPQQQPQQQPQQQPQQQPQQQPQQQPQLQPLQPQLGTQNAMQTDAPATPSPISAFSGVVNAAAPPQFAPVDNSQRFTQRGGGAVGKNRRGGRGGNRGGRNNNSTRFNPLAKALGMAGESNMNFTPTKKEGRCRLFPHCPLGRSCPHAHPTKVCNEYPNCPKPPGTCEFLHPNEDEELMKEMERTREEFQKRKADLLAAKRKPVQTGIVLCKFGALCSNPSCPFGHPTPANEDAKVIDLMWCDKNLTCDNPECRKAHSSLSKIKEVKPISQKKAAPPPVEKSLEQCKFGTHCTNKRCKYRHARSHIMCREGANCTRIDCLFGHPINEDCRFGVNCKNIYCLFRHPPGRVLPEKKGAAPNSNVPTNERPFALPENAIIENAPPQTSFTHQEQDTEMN
T2 sequence 2: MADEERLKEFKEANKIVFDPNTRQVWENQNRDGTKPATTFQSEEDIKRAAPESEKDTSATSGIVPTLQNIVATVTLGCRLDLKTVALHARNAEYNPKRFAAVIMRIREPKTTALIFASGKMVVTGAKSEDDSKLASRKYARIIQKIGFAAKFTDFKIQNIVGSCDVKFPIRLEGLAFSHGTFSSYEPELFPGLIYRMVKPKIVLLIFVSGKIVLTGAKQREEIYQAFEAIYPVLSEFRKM
T2 sequence 3: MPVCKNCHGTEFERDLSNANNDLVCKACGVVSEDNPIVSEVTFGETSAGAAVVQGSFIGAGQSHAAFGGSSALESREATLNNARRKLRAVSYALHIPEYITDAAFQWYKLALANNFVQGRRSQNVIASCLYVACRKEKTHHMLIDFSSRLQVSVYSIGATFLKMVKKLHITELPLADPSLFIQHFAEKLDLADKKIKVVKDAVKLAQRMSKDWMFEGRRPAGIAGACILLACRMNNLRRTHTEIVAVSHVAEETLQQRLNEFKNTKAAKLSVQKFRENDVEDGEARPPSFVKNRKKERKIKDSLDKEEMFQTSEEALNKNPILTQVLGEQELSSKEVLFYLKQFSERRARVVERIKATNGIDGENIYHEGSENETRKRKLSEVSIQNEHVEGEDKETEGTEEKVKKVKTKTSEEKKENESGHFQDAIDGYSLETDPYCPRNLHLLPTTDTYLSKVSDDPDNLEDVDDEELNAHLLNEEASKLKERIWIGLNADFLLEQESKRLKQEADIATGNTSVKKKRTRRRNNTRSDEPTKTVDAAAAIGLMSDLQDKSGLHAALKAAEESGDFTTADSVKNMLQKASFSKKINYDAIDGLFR

Measured: binding result

Chain of Nab2;Tbp;Brf1;Bdp1 (P46678 whole entry, one chain of several): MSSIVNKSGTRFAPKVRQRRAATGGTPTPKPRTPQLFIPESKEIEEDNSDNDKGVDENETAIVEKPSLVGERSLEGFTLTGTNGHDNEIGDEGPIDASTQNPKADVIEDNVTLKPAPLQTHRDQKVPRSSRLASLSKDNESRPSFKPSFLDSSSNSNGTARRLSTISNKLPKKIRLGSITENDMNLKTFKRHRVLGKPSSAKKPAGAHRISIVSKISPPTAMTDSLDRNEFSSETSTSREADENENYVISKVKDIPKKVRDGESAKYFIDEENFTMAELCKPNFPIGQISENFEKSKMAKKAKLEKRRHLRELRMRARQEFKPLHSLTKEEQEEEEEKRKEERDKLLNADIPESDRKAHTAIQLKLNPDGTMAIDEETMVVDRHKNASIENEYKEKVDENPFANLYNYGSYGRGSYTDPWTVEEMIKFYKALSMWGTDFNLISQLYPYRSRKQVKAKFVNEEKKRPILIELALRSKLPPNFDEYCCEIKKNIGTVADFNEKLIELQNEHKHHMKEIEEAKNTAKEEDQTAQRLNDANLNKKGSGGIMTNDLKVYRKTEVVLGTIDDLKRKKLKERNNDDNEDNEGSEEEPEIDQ

B1: TA-30-B6 (dsDNA)
DNA 1: GCTGAAATCTCTTTTTCAATTGCTCCGGTGTATAAAGCCGCGGTCCCTTACTCTTTCTTCAACAATTAAATACTC
DNA 2: GAGTATTTAATTGTTGAAGAAAGAGTAAGGGACCGCCCCTTTATTGACCGGAGCAATTGAAAAAGAGATTTCAGC
binds: all assays above
